The record followed here is patent US20230167200A1 (published 2023).

Usually EC50 stands for the concentration that produces a half-maximal response. Higher therefore signals weaker potency.

Test [1] deals with T1, human PD-L2 expressed on CHO cells (CHO-hPD-L2 cells) (human, UniProt Q9BQ51 20-273).
T1 chain: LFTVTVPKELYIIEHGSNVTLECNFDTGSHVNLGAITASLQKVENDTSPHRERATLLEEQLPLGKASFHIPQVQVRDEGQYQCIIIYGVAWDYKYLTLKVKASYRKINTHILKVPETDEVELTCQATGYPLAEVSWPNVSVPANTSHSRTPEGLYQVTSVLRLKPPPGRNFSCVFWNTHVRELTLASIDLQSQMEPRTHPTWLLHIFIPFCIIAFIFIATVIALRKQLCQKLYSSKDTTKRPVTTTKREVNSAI
Nature of the test: flow cytometry cell binding. (In general: A flow cytometer gives signals particle by particle.)

The target of test [2] is human PD-L1 expressed on CHO cells (CHO-hPD-L1 cells) (human, UniProt Q9NZQ7 19-290). Nature of the test: flow cytometry cell binding.
human PD-L1 expressed on CHO cells (CHO-hPD-L1 cells), sequence (Q9NZQ7 19-290): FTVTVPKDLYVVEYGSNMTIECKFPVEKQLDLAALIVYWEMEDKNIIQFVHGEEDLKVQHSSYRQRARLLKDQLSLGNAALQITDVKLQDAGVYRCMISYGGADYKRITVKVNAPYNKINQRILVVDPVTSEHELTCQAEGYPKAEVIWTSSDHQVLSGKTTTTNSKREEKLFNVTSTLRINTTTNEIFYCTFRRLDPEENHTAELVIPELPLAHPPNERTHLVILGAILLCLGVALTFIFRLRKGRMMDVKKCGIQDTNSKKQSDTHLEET

B1: anti-PD-L1/PD-L2 bispecific antibody Fc fusion protein Bi-203-204 (bispecific antibody, V domains shown)
V domain 1: QVQLVESGGGLVKPGGSLRLSCAASGHTFIIYAIGWFRQAPGKGLEFVATINWSGSMTNYADSVKGRFTISRDNAKNTVYLQMNSLKPDDTAVYYCAAYVGATISTAHSRYDYWGQGTLVTVSS
V domain 2: EVQLVESGGGLVQPGGSLRLSCAASGRTFSSMTIGWFRQAPGKGLEFVSGIGWTSGLTVYADSVKGRFTISRDNAKNSMYLQMNSLRAEDTAVYYCAADSMNRGQFDYWGQGTLVTVSS
As for B1, the EC50 turned out to be 1.25 nM in test [1] and 3.79 nM in test [2].
